Patent US9725708B2, “Methods of modulating ubiquitin ligase activity” (Board of Supervisors of Louisiana State University and …, priority 2012, dated 2017)
Like-named read-outs stand apart in the source and are kept apart here. No end group written: not given here.

Tests used:
E6AP ligase [1] = biological target: T1, E6AP ligase (Homo sapiens, UniProt Q05086); assay: E6AP-catalyzed 125I-polyubiquitin chain formation, initial rates; assay type: biochemical; settings: for mode of action: with respect to [UbcH7]o
T1 construct: corresponding to full-length GST-E6AP; made in house; host or cells: E. coli
T1 sequence (Q05086 1-872 isoform Q05086-3): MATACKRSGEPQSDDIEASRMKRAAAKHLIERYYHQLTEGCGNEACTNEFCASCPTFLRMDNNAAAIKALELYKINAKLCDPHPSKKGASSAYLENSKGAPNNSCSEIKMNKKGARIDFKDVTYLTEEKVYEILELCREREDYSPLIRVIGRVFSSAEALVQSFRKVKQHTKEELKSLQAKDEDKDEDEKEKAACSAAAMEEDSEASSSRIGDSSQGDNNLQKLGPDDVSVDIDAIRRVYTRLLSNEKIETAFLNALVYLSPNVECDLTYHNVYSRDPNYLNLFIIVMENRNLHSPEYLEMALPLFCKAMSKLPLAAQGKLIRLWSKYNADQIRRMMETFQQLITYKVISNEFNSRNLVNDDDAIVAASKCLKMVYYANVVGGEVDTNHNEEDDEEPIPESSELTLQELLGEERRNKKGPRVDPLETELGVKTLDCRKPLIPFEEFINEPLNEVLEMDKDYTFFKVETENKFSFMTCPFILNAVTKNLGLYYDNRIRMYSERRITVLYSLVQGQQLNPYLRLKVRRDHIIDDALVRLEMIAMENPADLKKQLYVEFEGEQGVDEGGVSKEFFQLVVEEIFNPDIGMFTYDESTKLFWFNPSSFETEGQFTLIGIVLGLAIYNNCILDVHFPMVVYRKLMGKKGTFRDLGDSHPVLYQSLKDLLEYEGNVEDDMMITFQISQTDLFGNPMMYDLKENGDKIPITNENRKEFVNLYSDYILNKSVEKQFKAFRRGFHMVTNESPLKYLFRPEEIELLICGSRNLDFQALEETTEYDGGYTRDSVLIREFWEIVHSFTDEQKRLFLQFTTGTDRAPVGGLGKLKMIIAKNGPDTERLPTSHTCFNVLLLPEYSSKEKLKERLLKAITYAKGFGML
Protocol: (§1) E6AP-catalyzed ^125I-Ubiquitin Conjugation Assay: The E3 ligase activity of recombinant E6AP ligase was quantitated in kinetic assays under initial velocity conditions (Ronchi et al., (2013) J. Biol. Chem. 288, 10349-10360, Ronchi & Haas (2012) Methods Mol. Biol. 832: 197-218). Rates of E6AP-catalyzed ^125I-polyubiquitin chain formation were measured at 37° C. in incubations of 25-μl final volume containing 50 mM Tris-HCl (pH 7.5), 1 mM ATP, 10 mM MgCl2, 1 mM DTT, 10 mM creatine phosphate, 1 IU of creatine phosphokinase, 5 μM ^125I-ubiquitin (approximately 1.5×10^4 cpm/pmol), 50 nM human Uba1, and the indicated concentrations of UbcH7 and E6AP ligase (Siepmann et al., (2003) J. Biol. Chem. 278: 9448-9457; Baboshina et al., (2001) J. Biol. Chem. 276: 39428-39437).
(§2) Reactions were initiated by the addition of ^125I-ubiquitin. After 10-30 min, the reactions were quenched by the addition of 25 μl of 2×SDS sample buffer containing 0.3% (v/v) β-mercaptoethanol, and then the samples were heated to 100° C. for 3 min. The polyubiquitin conjugates were resolved from free ^125I-ubiquitin by 12% (w/v) SDS-PAGE under reducing conditions at 4° C. and visualized by autoradiography of the dried gels.
(§3) Polyubiquitin chain formation was measured by excising lanes between the top of the resolving gel and the top of the stacker gel, representing anchored and free ^125I-polyubiquitin chains, respectively, and quantitating associated ^125I-ubiquitin by γ-counting. Absolute rates of ^125I-polyubiquitin chain formation were calculated from the associated radioactivity and the corrected specific radioactivity for ^125I-ubiquitin. Datum points represent single assay determinations, and complete data sets were evaluated by non-linear regression analysis using GraFit version 5.0 (Erithicus). Active Uba1, E2, and E6AP ligase were independently determined in parallel by their stoichiometric formation of ^125I-ubiquitin thioester.

His6-E6AP ligase = biological target: T2, His6-E6AP ligase (Homo sapiens, UniProt Q05086); assay: Static light-scattering of His6-E6AP ligase oligomer
T2 construct: Full-length recombinant His6-E6AP ligase was isolated from the medium; made in house; host or cells: Sf9 insect cells (baculovirus)
T2 sequence (Q05086 1-872 isoform Q05086-3): T1 sequence (Q05086 1-872 isoform Q05086-3)
Protocol: Static Light-scattering Measurements: His6-E6AP ligase after the His trap affinity purification step was further purified by FPLC using a Mono Q 5/50 column (Amersham Biosciences) equilibrated in 50 mM Tris-HCl (pH 7.5) and 1 mM DTT. Recombinant His6-E6AP ligase eluted at 300 mM NaCl in a 0-500 mM gradient (16 mM/ml, 1 ml/min). The molecular weight of His6-E6AP ligase was determined in solution at 37° C. by static light-scattering using a 235-DynaPro NanoStar laser light-scattering spectrometer at 663 nm wavelength (Wyatt Technology Corp.). Spectra were collected for 18 μM His6-E6AP ligase in 50 mM Tris-HCl (pH 7.5) containing 200 mM NaCl. The effect of Ac-PheNH2 on the molecular weight of His6-E6AP ligase was determined in 50 mM Tris-HCl (pH 7.5) containing 200 mM NaCl, 16 μM His6-E6AP ligase total protein, 61 mM Ac-PheNH2, and 8% (v/v) carrier methanol. The molecular weight of E6AP ligase was also evaluated in reactions containing 0-350 μM Ac-NRIRMYSERRITVLYSL (SEQ ID NO: 1) in 50 mM Tris-HCl (pH 7.5), 250 mM NaCl, 1 mM DTT, and 17 μM His6-E6AP. Data were analyzed with Dynamics® software at both default and maximum sensitivity to detect the presence of low concentrations of E6AP ligase oligomeric forms.

E6AP ligase [2] = assay: E6AP-catalyzed 125I-polyubiquitin chain formation, initial rates; assay type: biochemical, Human; settings: free GST less than 5 μM; GST-E6AP
Protocol: as §1, §2, §3

GST [3] = biological target: T3, GST (Schistosoma japonicum, UniProt P08515); assay: GST dimerization; assay type: binding; settings: predicted from ΔΔGbinding of GST-E6APΔ495 vs E6APΔ495
GST [4] = biological target: T3, GST; settings: literature value, cited from earlier work
[5] = biological target: T4, UbcH7˜ubiquitin thioester (Homo sapiens, UniProt P68036); assay: Kinetics of 125I-polyubiquitin chain formation by E6AP ligase forms with respect to [UbcH7]o; assay type: biochemical
T4 construct: made in house
Protocol: as §1, §2, §3

[6] = Table 1, Hect domain row is monoubiquitination
[7] = non-competitive with respect to [UbcH7]o, His6-E6AP, read-out: Ki

T3 sequence (P08515 whole entry): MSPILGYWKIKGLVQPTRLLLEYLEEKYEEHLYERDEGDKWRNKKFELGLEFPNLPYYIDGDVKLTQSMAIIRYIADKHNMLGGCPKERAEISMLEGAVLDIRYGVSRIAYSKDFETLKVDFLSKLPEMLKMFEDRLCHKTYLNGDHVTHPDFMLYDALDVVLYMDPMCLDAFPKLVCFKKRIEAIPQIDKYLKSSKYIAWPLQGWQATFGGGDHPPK
T4 sequence (P68036 whole entry, other chains not shown): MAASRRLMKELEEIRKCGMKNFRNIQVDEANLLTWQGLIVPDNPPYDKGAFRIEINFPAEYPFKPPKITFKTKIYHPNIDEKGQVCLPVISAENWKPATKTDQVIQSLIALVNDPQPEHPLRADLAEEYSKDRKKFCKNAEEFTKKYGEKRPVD

Molecule: CC(=O)N[C@@H](Cc1ccccc1)C(N)=O [Ac-PheNH2, N-acetyl-L-phenylalanylamide]
- Ki (E6AP ligase [1]; 125I-polyubiquitin chain formation, read-out: Ki): 12000 ± 3000 µM
- Ki (E6AP ligase [1]; His6-E6AP, non-competitive with respect to [UbcH7]o, absence or presence of 44 mM Ac-PheNH2, read-out: Ki): 12000 ± 3000 µM
- effect on polyubiquitin chain formation (E6AP ligase [1]; inhibitors, at higher concentrations): quantitative inhibition
- mode of action (E6AP ligase [1]): non-competitive inhibitor
- effect on E6AP ligase oligomer (His6-E6AP ligase): disrupts trimer formation
- molecular weight of His6-E6AP ligase peak after addition (His6-E6AP ligase; 61 mM Ac-PheNH2, 16 μM His6-E6AP, 8% methanol): 104 kDa

Molecule: Ac-NRIRMYSERRITVLYSL [Ac-NRIRMYSERRITVLYSL peptide, Ac-NRIRMYSERRITVLYSL]
- Ki (E6AP ligase [1]; His6-E6AP, hyperbolic dependence, semi-reciprocal plot, read-out: Ki (apparent)): 22 ± 2 µM
- mode of action (E6AP ligase [1]): non-competitive inhibitor
- effect on E6AP ligase oligomer (His6-E6AP ligase): promotes dissociation

Molecule: GST: recombinant free glutathione-S-transferase
- K½ of decrease in initial rate of polyubiquitin chain formation (E6AP ligase [2]): approximately 1 μm
- Kd for GST association (GST [3]): 1.6 µM
- Kd (GST [4]; b128, read-out: Kd for GST dimerization): 0.6 µM
- Kd for GST association, published value (GST [4]; b130): 0.6 µM

Molecule: Homogeneous His6-E6AP: baculoviral-expressed full-length His6-E6AP ligase
- Km [5]: 0.046 ± 0.007 µM
- kcat [5]: 0.63 ± 0.03 s⁻¹
- kcat higher than heterogeneous GST-E6AP [5]: 20 fold
- kcat ([5]; Table 1): 6.3 ± 0.3 × 10^−1 s^−1
- Km [5, 6]: 0.046 ± 0.007 µM

B1: E6(HPV16)Ct: recombinant E6 C-terminal domain encompassing residues 89-158 (protein, UniProt P03126 89-158, looked up, fragment)
chain: SLYGTTLEQQYNKPLCDLLIRCINCQKPLCPEEKQRHLDKKQRFHNIRGRWTGRCMSCCRSSRTRRETQL
- Ki (E6AP ligase [1]; [7]): 4 µM
- mode of action (E6AP ligase [1]): non-competitive inhibitor

B2: E6(HPV16)Δ91: recombinant E6 N-terminal domain encompassing residues 1-91 (protein, UniProt P03126 1-91, looked up, fragment)
chain: MHQKRTAMFQDPQERPRKLPQLCTELQTTIHDIILECVYCKQQLLRREVYDFAFRDLCIVYRDGNPYAVCDKCLKFYSKISEYRHYCYSLY
- Ki (E6AP ligase [1]; hyperbolic concentration dependence, not shown, read-out: apparent Ki): 4 µM
- Ki (E6AP ligase [1]; [7]): 6 µM
- mode of action (E6AP ligase [1]): non-competitive inhibition

B3: GST-E6AP ligase Hect domain: GST fusion of E6AP ligase Hect domain residues 450-852 (protein, UniProt Q05086 450-852, looked up, fragment)
chain: INEPLNEVLEMDKDYTFFKVETENKFSFMTCPFILNAVTKNLGLYYDNRIRMYSERRITVLYSLVQGQQLNPYLRLKVRRDHIIDDALVRLEMIAMENPADLKKQLYVEFEGEQGVDEGGVSKEFFQLVVEEIFNPDIGMFTYDESTKLFWFNPSSFETEGQFTLIGIVLGLAIYNNCILDVHFPMVVYRKLMGKKGTFRDLGDSHPVLYQSLKDLLEYEGNVEDDMMITFQISQTDLFGNPMMYDLKENGDKIPITNENRKEFVNLYSDYILNKSVEKQFKAFRRGFHMVTNESPLKYLFRPEEIELLICGSRNLDFQALEETTEYDGGYTRDSVLIREFWEIVHSFTDEQKRLFLQFTTGTDRAPVGGLGKLKMIIAKNGPDTERLPTSHTCFNVLLLPEY
modifications: HECT domain GST fusion
- Km [5]: 0.089 ± 0.011 µM
- kcat lower than full-length E6AP ligase [5]: 2000 fold
- kcat ([5]; Table 1): 3.2 ± 0.1 × 10^−4 s^−1
- Km [5, 6]: 0.089 ± 0.011 µM
